# From patent US12180473B2, “Chimeric RNA-driven genomic rearrangement in mammalian cells” (priority 2018, dated 2024)
# Entries after “also recorded” stand apart in the source; their conditions may differ. Like-named read-outs stand apart in the source and are kept apart here.
# B1: JS-8: chimeric RNA, JAZF1-SUZ12, GC content 27% (nucleic acid)
# chain: TCAACAAAAGAACTATTGATTGATGCCAAACAAGATGAAAATTTCACTTTGCGTATTAGTTACCAAAGGTTTATTTATGTTTCTGTAATGCATATTTATA
# modifications: chimeric RNA, chemistry not given here
# B2: Antisense-TMPRSS2-ETV1-A1: input RNA, SEQ ID NO: 34; antisense RNA designed to target stem TMPRSS2-ETV1-A (nucleic acid)
# antisense: TGTGCTCGCTTCGGCAGCACATATACTAACATTGGAACGATCCTGCAGTGCCGCATTATGTAAATCGTTCCAAGTTAAAGTCTTAGTTAGATTCAGTAGACTAGGAGCCAGCTTTGGGGACCCCGGGGGACTCTCTTCCACCAACTGG
# B3: S4 30-2: chimeric RNA, BCR-KCNQ2, GC content 55.4% (nucleic acid)
# chain: GAGATCGAGACCATCCTGGCTAACGCAGTGAAACCCCGTCTCTACATTACCAGCCTTCACTGTTCTGACAGCTCCAGTAGCTGGGGGAGACC
# modifications: listed as DNA, further chemistry not given here
# B4: S1-7: chimeric RNA, BCR-RANGAP1, GC content 48.4% (nucleic acid)
# chain: AGAATATGTGTAATTGTGTTACCAGCCTTCACTGTTCTGACAGCTCCAGTAGCTGGGGGAGACC
# modifications: chimeric RNA, chemistry not given here
# B5: Antisense-5: input RNA, SEQ ID NO: 8 (nucleic acid)
# antisense: TGTGCTCGCTTCGGCAGCACATATACTAACATTGGAACGATCCTGCAGCTTGAGCCATTCACCTGGCTAGGGTTACATTCCATATTGATGGTGACCCTGGCTGGGGGTTGAGACAGCCAATCCGCCGCTCACCTGCCGCGCTCCAGGCGGCGCTCCCCGCCCCTCGCCCTCCGCCAGACAGGAGTGAGAGATGGAAGCTCGCGCCTACTC
# Experiments:
# JAZF1-SUZ12 fusion = assay: Nested RT-PCR of induced JAZF1-SUZ12 fusion transcript in 293T cells; assay type: cell-based, human
# Text: FIGS. 39A-39D. RNA-mediated inter-chromosomal JAZF1-SUZ12 fusion in 293T cells. FIG. 39A. The design of chimeric RNA is based on the three-way junction that could be formed between genomic DNA (in the stem) and chimeric RNA (perpendicular and below the stem). The three-way junction comprises an RNA/DNA hybrid and a genomic DNA stem between the parental genes (JAZF1 and SUZ12). The sense genomic strand of JAZF1 gene is on the negative strand of chromosome 7 while that of SUZ12 is on the positive strand of chromosome 17. Short vertical lines in gray regions between the chromosome and the chimeric RNA represent base pairings. FIG. 39B. […] This chimeric RNA target intron regions and has GC content of 27%. The fusion RNA transcribed from the induced fusion gene contains an annotated splice junction. In this particular case, two different fusion RNAs were confirmed based on the results derived from the Sanger sequencing data. FIG. 39B discloses the JAZF1 targeting sequence as SEQ ID NO: 236, the SUZ12 targeting sequence as SEQ ID NO: 237, and the chimeric sequence as SEQ ID NO: 238. FIG. 39C. Example of inter-chromosomal JAZF1-SUZ12 fusion transcript (arrow) induced by sequence-specific chimeric RNAs in 293T cells without additional hormone or other stimuli. 293T cells were transfected with chimeric RNA expression plasmid. Total RNA was then harvested at day 3. […]
# TMPRSS2-ETV1 fusion = assay: RT-PCR detection of induced TMPRSS2-ETV1 fusion transcript in LNCaP cells; assay type: cell-based, human; conditions: for TMPRSS2-ETV1 fusion, specificity of input RNA: three-round nested PCR (FIG. 4C)
# Experimental: • 1st Round: Top down PCR with TMPRSS2 ex-1 F1 and ETV1 ex-6 R1 • Denaturation 94° C., 30 sec • Annealing * , 45 sec • Extension 72° C., 60 sec
# The Denaturation, Annealing and Extension steps were performed 2 cycles. • 2 cycles at each temperature: 62° C., 61° C., 60° C. . . .
# Long Range PCR for Detecting Genomic DNA Fusion Junction
# [1] = system: TMPRSS2-ETV1 genomic breakpoints; assay: Genomic PCR of TMPRSS2-ETV1 genomic breakpoints in enriched LNCaP population; assay type: cell-based, human; conditions: enriched vs untransfected LNCaP cells
# Experimental: (§1) Nested long-range PCRs according to the manufacturer's protocols using LA PCR kit (Takara, #RR002M). 200 ng of genomic DNA was used in each reaction and PCR was performed with annealing and extension at 68° C. for 20 minutes. 1 μl from the above reaction (1st round PCR) was used as template for the 2nd round PCR.
# TMPRSS2-ETV1 fusion gene = assay: FISH with 3D image reconstruction, co-localization of TMPRSS2 and ETV1 in enriched LNCaP population; assay type: cell-based, human; conditions: 30 out of 3301 cells
# Experimental: Enriched population carrying TMPRRS2-ETV1 fusion events were first grown on 18 mm round #1 coverglass in a 12-well cell culture plate at the initial density of 200-400 k/well. Cells were then fixed with 4% (vol./vol.) formaldehyde followed by denaturation of DNA with 0.1 N HCl for 5 min and with 70% formamide at 85° C. for 7 min. Hybridization of target DNA with probes were done at 37° C. for 16 hr in a humidified chamber. Cells were then washed, stained with DAPI and imaged with microscope. FISH probes for TMPRSS2 (RP11-35C4, red) and ETV1 (RP11-769K2, green) were purchased from Empire Genomics.
# TMPRSS2-ERG fusion [2] = assay: RT-PCR detection of induced endogenous TMPRSS2-ERG fusion transcript in LNCaP cells expressing input RNA; conditions: for TMPRSS2-ERG fusion, specificity of input RNA: three-round nested PCR (FIG. 4C); for induction of endogenous TMPRSS2-ERG fusion transcript (RT-PCR): LNCaP cells transfected with input RNA plasmid, DHT for 3 days
# Experimental: LNCaP cells were cultured in this special medium for 24 hrs prior to plasmid transfection.
# Transfection was performed using Turbofect transfection reagent (Thermo Scientific, #R0531) according to manufacturer's protocol. Briefly, 1 μg of a particular plasmid was first diluted in 100 μl of the serum-free DMEM followed by immediate mixing by pipetting. 4 μl of the transfection reagent was then added to the diluted DNA followed by mixing and incubation for 20 min. The DNA/transfection reagent mixture was then added drop wise to a well containing LNCaP cells in 1 ml medium.
# For treating cultured cells, concentrated DHT stock was diluted as 10× working solutions (for example, for 0.9 μM final concentration, 10× is prepared as 9.0 μM) with the appropriate complete culture medium and used immediately. […] Six hrs post transfection, 111 μl of fresh 10× DHT working solutions was added to each well of 12-wells plate containing 1 ml medium and transfected cells.
# Briefly, cells were suspended in 200 μl of PBS buffer and were then lysed with 400 μl of lysis buffer. The sample was then passed through the filter assembly resulting in the binding of the nucleic acids to the filter. The filter containing nucleic acids was then incubated with DNase I dissolved in DNase incubation buffer to degrade genomic and plasmid DNAs. The column was then rinsed with wash buffer and total RNA then eluted in a new tube for further analysis.
# After the addition of dNTPs, the mixture was denatured at 65° C. for 5 minutes. This was followed by the addition of a master-mix containing 1× superscript buffer, 10 mM DTT, 5 mM Magnesium chloride, RNaseOUT and Superscript III reverse transcriptase. Reactions were carried out at 50° C. for 50 minutes and then terminated by incubation at 85° C. for 5 minutes. cDNA was then treated with RNase-H for 20 minutes at 37° C. to degrade RNA in DNA/RNA hybrid. 1 μl of cDNA was used as template for each subsequent PCR reaction.
# The Denaturation, Annealing and Extension steps were performed 32 cycles for induced fusion RNA and 27 cycles for input RNA.
# [3] = RT-PCR detection of input RNA in propagated/enriched LNCaP population; assay type: cell-based, human; conditions: enriched LNCaP population
# Experimental: FIG. 18. Procedure used to propagate and enrich the induced LNCaP population for 52 days in the absence of DHT. LNCaP cells were transfected on day 1 with antisense-5 and incubated for 3 days with DHT. Cells were then divided into sub-populations. Half of the cells from each sub-population were harvested for RT-PCR assays to detect the induced fusion transcript whereas the other half was used to propagate the population. […] The process was continued for 52 days.
# BCR-KCNQ2 fusion = assay: Nested RT-PCR of induced BCR-KCNQ2 fusion transcript in HL-60 cells; assay type: cell-based, human
# Text: FIGS. 41A-41D. RNA-mediated inter-chromosomal BCR-KCNQ2 fusion in HL-60 cells by designed chimeric RNA. FIG. 41A. The design of chimeric RNA is based on the three-way junction that could be formed between genomic DNA (in the stem) and chimeric RNA (perpendicular and below the stem). The three-way junction consists of an RNA/DNA hybrid and a genomic DNA stem (black) between the parental genes (BCR and KCNQ2). The sense genomic strand of BCR gene is on the positive strand of chromosome 22 while that of KCNQ2 is on the negative strand of chromosome 20. Short lines in gray regions represent base pairings. FIG. 41B. […] This chimeric RNA target intron regions and has GC content of 55.4%. The fusion RNA transcribed from the induced fusion gene contains an annotated splice junction. In this case, two different fusion RNAs were confirmed based on the results derived from the Sanger sequencing data. FIG. 41B discloses the BCR targeting sequence as SEQ ID NO: 242, the KCNQ2 targeting sequence as SEQ ID NO: 243, and the chimeric sequence as SEQ ID NO: 244. FIG. 41C. Two BCR-KCNQ2 fusion transcript variants were induced in HL-60 cells by chimeric RNA targeting BCR and KCNQ2 genes in the genome without hormone or other stimuli. FIG. 41D. Schematic of induced BCR-KCNQ2 fusion transcripts derived from the Sanger sequencing data. […]
# BCR-RANGAP1 fusion = assay: Nested RT-PCR of induced BCR-RANGAP1 fusion transcript in 293T cells; assay type: cell-based, human
# Text: FIGS. 40A-40C. RNA-mediated intra-chromosomal BCR-RANGAP1 fusion in 293T cells by designed chimeric RNA. FIG. 40A. The design of chimeric RNA is based on the three-way junction that could be formed between genomic DNA (in the stem) and chimeric RNA (perpendicular and below the stem). The three-way junction consists of an RNA/DNA hybrid and a genomic DNA stem between the parental genes (BCR and RANGAP1). The sense genomic strand of BCR gene is on the positive strand of chromosome 22 while that of RANGAP1 is on the negative strand of chromosome 22, separated by 18 Mb. Short lines in gray regions represent base pairings. FIG. 40B. […] This chimeric RNA target intron regions and has GC content of 48.4%. The fusion RNA transcribed from the induced fusion gene contains an annotated splice junction. FIG. 40B discloses the BCR targeting sequence as SEQ ID NO: 239, the RANGAP1 targeting sequence as SEQ ID NO: 240, and the chimeric sequence as SEQ ID NO: 241. FIG. 40C. Intra-chromosomal BCR-RANGAP1 fusion transcript (arrow) induced by sequence-specific chimeric RNA in 293T cells without additional hormone or other stimuli. 293T cells were transfected with chimeric RNA expression plasmid. Total RNA was then harvested at day 3. Nested RT-PCR using specific primer pairs were used to detect the induced fusion transcript. […]
# [4] = system: TMPRSS2-ERG genomic breakpoint; assay type: cell-based, human
# Experimental: as §1
# For the genomic breakpoint identified in this manuscript, 1st round long range PCR was done using primers TMPRSS2 genomic bk-F1 and ERG genomic bk-R1 shown in primer list below. 1 μl from the above reaction (1st round PCR) was used as template for the 2nd round PCR using inner primers TMPRSS2 genomic bk-F2 and ERG genomic bk-R2.
# TMPRSS2-ERG fusion [5] = system: TMPRSS2-ERG fusion
# [6] = 293T, day 3, without hormone or other stimuli
molecule,measurement,setting,value
B1,induction of JAZF1-SUZ12 fusion,JAZF1-SUZ12 fusion; [6],induce JAZF1-SUZ12 fusion
same,Cell line(s) identified,JAZF1-SUZ12 fusion; fusion gene partners JAZF1-SUZ12,293T
B2,"TMPRSS2-ETV1 fusion, specificity of input RNA",TMPRSS2-ETV1 fusion; LNCaP,induced TMPRSS2-ETV1 fusion
same,induction of TMPRSS2-ETV1 fusion transcript (RT-PCR),"TMPRSS2-ETV1 fusion; LNCaP, two-round nested PCR",clear induction of the TMPRSS2-ETV1 fusion transcript; also recorded: led to induced fusion transcript
same,persistence of induced TMPRSS2-ETV1 fusion transcript,TMPRSS2-ETV1 fusion; enriched LNCaP population post initial treatment,≥ 47 days
same,Cell line(s) identified,TMPRSS2-ETV1 fusion; fusion gene partners TMPRSS2-ETV1,LNCaP
same,"genomic TMPRSS2-ETV1 fusion bands x, y, z",[1],present only in the induced and enriched LNCaP population
same,cells positive for TMPRSS2-ETV1 fusion gene by co-localized FISH signals,TMPRSS2-ETV1 fusion gene,Approximately 0.9%
same,"TMPRSS2-ERG fusion, specificity of input RNA",TMPRSS2-ERG fusion [2]; LNCaP,not TMPRSS2-ERG fusion
same,time after transfection until which transiently expressed input RNA is present (RT-PCR),[3],< 47 days
B3,induction of BCR-KCNQ2 fusion,"BCR-KCNQ2 fusion; HL-60, nucleofection, day 7",induce BCR-KCNQ2 fusion
same,Cell line(s) identified,"BCR-KCNQ2 fusion; fusion gene partners BCR-KCNQ2, HL-60",HL-60
B4,induction of BCR-RANGAP1 fusion,BCR-RANGAP1 fusion; [6],induce BCR-RANGAP1 fusion
same,Cell line(s) identified,BCR-RANGAP1 fusion; fusion gene partners BCR-RANGAP1,293T
B5,"genomic TMPRSS2-ERG fusion band (~862 bp, primer pair A/D)",[4],present only in the enriched LNCaP population
same,"TMPRSS2-ETV1 fusion, specificity of input RNA",TMPRSS2-ETV1 fusion; LNCaP,not TMPRSS2-ETV1 fusion
same,induction of endogenous TMPRSS2-ERG fusion transcript (RT-PCR),TMPRSS2-ERG fusion [2],clear induction
same,induction of endogenous TMPRSS2-ERG fusion transcript (RT-PCR),TMPRSS2-ERG fusion [2]; listed as antisense-5,peaked; also recorded: sufficient to induce TMPRSS2-ERG gene fusion
same,lowest DHT concentration at which fusion induction occurred,"TMPRSS2-ERG fusion [2]; LNCaP, 3 days, three-rounds of nested PCR",20 nM
same,"TMPRSS2-ERG fusion, specificity of input RNA",TMPRSS2-ERG fusion [2]; LNCaP,induced TMPRSS2-ERG fusion
same,persistence of induced TMPRSS2-ERG fusion transcript,TMPRSS2-ERG fusion [2]; enriched LNCaP population propagated in absence of DHT and input RNA,≥ 52 days
same,Cell line(s) identified,"TMPRSS2-ERG fusion [2]; fusion gene partners TMPRSS2-ERG, LNCaP","LNCaP,"
same,induction of TMPRSS2-ERG fusion after transfection of digested plasmid fragments,TMPRSS2-ERG fusion [2]; plasmid cut SacII/KpnI or SacII/PstI,induced only when the U6 promoter was attached to antisense-5 sequence
same,time after transfection until which transiently expressed input RNA is present (RT-PCR),[3],≤ 17 days
same,endogenous ERG mRNA (RT-PCR),ERG mRNA,not detected
same,endogenous ERG mRNA (three-rounds of nested RT-PCR),ERG mRNA,not detected
same,Cell line(s) identified,TMPRSS2-ERG fusion [5],PNT1A
